# Literature values as cited in article doi:10.1101/2024.02.22.581550.
# Target: Cys145 (UniProt position 145, PILIPCHRVVC)
substance,measurement,value
"O6-alkylguanine-DNA alkyltransferase (hAGT; MGMT, methylated-DNA--protein-cysteine methyltransferase) (Homo sapiens)",pKa,∼5
